In the supplement of paper PMC11865577:

Legend:
Experiment in all cases: pull-down binding Z-score (relative to library population); higher = stronger binding
Conditions in all cases: RNA library: Library-2
[1] = test system: TO-3-N3-2 (biotin conjugate)
Method in brief: (§1)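 Biotin-conjugated small molecule (100 pmol) on streptavidin beads was incubated with 1 μg of heat-folded Cy5- or Cy3-end-labelled RNA library in phosphate/NaCl/KCl buffer at 25 °C for 60 min. Following three washes, RNA was eluted with hot SDS and hybridised at 55.5 °C for 20 h to a DNA barcode microarray. The binding value is a Z-score computed from the library mean and standard deviation, after subtraction of beads without compound and averaging of barcoded replicate probes with the highest and lowest excluded.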

[2] = test system: TO-N3-2 (biotin conjugate)
Method in brief: as §1

TO-N3 (biotin conjugate) = test system: TO-N3 (biotin conjugate)
Method in brief: as §1

[3] = test system: TO-3-N3 (biotin conjugate)
Method in brief: as §1

Sequence | pull-down binding Z-score [1] | pull-down binding Z-score [2] | pull-down binding Z-score (TO-N3 (biotin conjugate)) | pull-down binding Z-score [3]
CUUGAACAAUGGAACCUAGUAAUAGGUUUCCUAUUCCUUACAUGGAUUUGUCUUCUACAAUUUGCCUAUGCCAACAGGAAUAGGUUUUUGUAUAUAAUUAAG | -0.369 | -1.14 | -1.12 | -0.828
UCUGCUCGCAUAGUGUAUACAGCUUGCUCUCAUGCCGCUGUUGAUGCACUAUGUGAGAAGGCAUUAAAAUAUUUGCCUAUAGA | -0.447 | -0.0527 | -0.615 | -0.598
GGGACUUAUGAUUAUCCC [IAV_invivo_HA_4_Motif_18+IAV_invivo_HA_4_Motif_18] | 0.126 | -0.911 | -0.122 | 0.293
GGACCAGGAACUAAUCAGACAAGGAACUGAUUACAAACAUUGGCC [DMSMaPseq_invitro_SARS-CoV-2_Motif_522] | 0.134 | 0.031 | 1.01 | 1.03
AACUUCUUAAGAGUGCUUAUGAAAAUUUUAAUCAGCACGAAGUU | 0.972 | -0.771 | -0.246 | 0.425
UCCACUAGCAUCUUUAUUGGAGAUGUGCCACAGCACACAGAUUGGUGGAAUUAGGAUGGUAGACAUCCUUAGGCAGAACCCAACAGAAGAGCAAGCCGUGGA | -0.269 | 0.0456 | -0.545 | -0.764
ACAGUAUGUCUUUUGUACUGU | -0.336 | -1.28 | -0.525 | -0.159
CUUACUGACAAUGUAUACAUUAAAAAUGCAGACAUUGUGGAAG [DMSMaPseq_invitro_SARS-CoV-2_Motif_59] | -0.18 | -0.455 | -0.328 | -0.453
AUCUACAAUGAU [DMSMaPseq_invitro_SARS-CoV-2_Motif_243] | -0.742 | -1.55 | -0.892 | -0.553
GGCACAAAUGCAACACUGCAUUACCAUGCGGUUGUGCC [3-way model-1_rpoH] | -0.624 | -1.27 | -1.42 | -1.03
GCGCUGCCAGAAACUGGCUCAGCGC [bulge-UC] | -0.576 | -0.361 | -0.584 | -0.319
AACUGGUAAUACACUUCAGUGUAUAAUGCUAGUU | -0.418 | -1.89 | -1.55 | -0.966
GUCAAAGUGAC [SHAPE_invivo_SARS-CoV-2_Motif_385] | -0.543 | -0.851 | -0.434 | -0.196
UCUCCUCAUUUACUGUGAAUGUGAGGGGA [IAV_invivo_PB2_1_Motif_31+IAV_invivo_PB2_1_Motif_31] | -0.219 | -0.905 | -0.72 | -0.428
GUUGAAGUUGUUGAUAAGUACUUUGAUUGUUACGAUGGUGGCUGUAUUAAUGCUAACCAAGUCAUCGUCAACAACCUAGACAAAUCAGCUGGUUUUCCAUUUAAU | -0.0144 | 0.567 | 0.0753 | -0.27
GUGAGAGAGAGCCGGAACCCAGGGAAUGCUGAGUUCGAAGAUCUCAC [IAV_invivo_NP_5_Motif_14+IAV_invivo_NP_5_Motif_14] | 0.125 | 1.5 | 0.687 | 0.351
GCGCUGCCAGAAACUGGCGGAGCGC [bulge-GG] | -0.672 | -0.22 | -0.873 | -0.714
GGCAUCUGCGGGCC [IAV_invivo_NP_5_Motif_21+IAV_invivo_NP_5_Motif_21] | -0.641 | -0.239 | -0.759 | -0.637
GUUAUAAAUGGAGACAGGUGGUUUCUCAAUCGAUUUACCACAACUCUUAAUGAC | 0.00889 | -0.831 | -0.772 | -0.728
GUGAAGAAUCAU | -0.146 | -0.489 | 0.379 | 0.637
AAAUUUACAAGAAUUU [SHAPE_invivo_SARS-CoV-2_Motif_380] | -0.556 | -1.48 | -0.556 | -0.131
GACCAGAAAUCAGCCCGAAUGGUU [IAV_invivo_PB1_2_Motif_17+IAV_invivo_PB1_2_Motif_17] | -0.175 | -0.162 | -0.464 | -0.477
GGCUCAUAGACUUCCUUAAGGAUGUAAUGGAGUC [IAV_invivo_PB1_2_Motif_10+IAV_invivo_PB1_2_Motif_10] | -0.15 | 1.62 | 0.795 | 0.164
AAGGGAGGGGCGGGUCGGGAA [G4_2A2_NRAS] | 11.1 | 5.24 | 7.02 | 8.72
